Patent publication US9462805B2, “Herbicide-resistant proteins, encoding genes, and uses thereof” (Beijing Dabeinong Technology Group Co., Ltd., priority 2012, dated 2016)

B1: 24DT02-a: added 24DT02 (SEQ ID NO: 5), Ala, Leu and Val added after the 298th amino acid (protein)
chain: MERHAMSNGKQIVRIEPLPGKTFGAVVTGVRLSELDEDTFSLLYREWLQYALLIFPAQYLTDSQQRDAASKFGCLVEGLEAVEISNLLPTGEVRAAPDDDMMKIIRGNMQWHQDNTYMPLQAKGALFSAKRVPSSGGETGFADMRAAWDALDTETQDRLANLSAYHSLAQSQKNLGEDVKSSDSEYIGYGLDVSTVPRRSLLKIHPETDRKTLAVGRHAFGVTGMAEQESTQFVSDLIDFAVADESRTYHHIWSEGDAILWDNRCLMHRACPWNFSQPRVMLHSRIAGDPSTEAALNSALV
modifications: 24DT02 added nucleotide sequence
B2: 24DT02-t: truncated 24DT02 (SEQ ID NO: 4), amino acids from 1 to 295 of 24DT02 amino acid sequence (protein)
chain: MERHAMSNGKQIVRIEPLPGKTFGAVVTGVRLSELDEDTFSLLYREWLQYALLIFPAQYLTDSQQRDAASKFGCLVEGLEAVEISNLLPTGEVRAAPDDDMMKIIRGNMQWHQDNTYMPLQAKGALFSAKRVPSSGGETGFADMRAAWDALDTETQDRLANLSAYHSLAQSQKNLGEDVKSSDSEYIGYGLDVSTVPRRSLLKIHPETDRKTLAVGRHAFGVTGMAEQESTQFVSDLIDFAVADESRTYHHIWSEGDAILWDNRCLMHRACPWNFSQPRVMLHSRIAGDPSTEAA
modifications: 24DT02 truncated nucleotide sequence
B3: 24DT02: herbicide-resistant protein of 298 amino acids, SEQ ID NO: 2, encoded by nucleotide sequence SEQ ID NO: 1 (protein)
chain: MERHAMSNGKQIVRIEPLPGKTFGAVVTGVRLSELDEDTFSLLYREWLQYALLIFPAQYLTDSQQRDAASKFGCLVEGLEAVEISNLLPTGEVRAAPDDDMMKIIRGNMQWHQDNTYMPLQAKGALFSAKRVPSSGGETGFADMRAAWDALDTETQDRLANLSAYHSLAQSQKNLGEDVKSSDSEYIGYGLDVSTVPRRSLLKIHPETDRKTLAVGRHAFGVTGMAEQESTQFVSDLIDFAVADESRTYHHIWSEGDAILWDNRCLMHRACPWNFSQPRVMLHSRIAGDPSTEAALNS
modifications: 24DT02 amino acid sequence
B4: 24DT02-i: substituted 24DT02 (SEQ ID NO: 3), in which the Met267 was substituted with Leu (protein)
chain: MERHAMSNGKQIVRIEPLPGKTFGAVVTGVRLSELDEDTFSLLYREWLQYALLIFPAQYLTDSQQRDAASKFGCLVEGLEAVEISNLLPTGEVRAAPDDDMMKIIRGNMQWHQDNTYMPLQAKGALFSAKRVPSSGGETGFADMRAAWDALDTETQDRLANLSAYHSLAQSQKNLGEDVKSSDSEYIGYGLDVSTVPRRSLLKIHPETDRKTLAVGRHAFGVTGMAEQESTQFVSDLIDFAVADESRTYHHIWSEGDAILWDNRCLLHRACPWNFSQPRVMLHSRIAGDPSTEAALNS
modifications: 24DT02 substituted nucleotide sequence

Key:
Arabidopsis = test: Effective dose distinguishing sensitive from resistant Arabidopsis; type: in vivo
[1] = test system: corn plants transfected with 24DT02 nucleotide sequence; test: Herbicide-resistance effect test of transgenic corn plants (24DT02; strains S1-S3); type: in vivo, maize; conditions: for resistance levels against 2,4-D dimethyl ammonium salt and agroxone, compared among the sequences: corn plants transformed with the respective sequence
Experimental: Herbicide resistance effects tests to 2,4-D dimethyl ammonium salt and agroxone of maize plants containing 24DT02 nucleotide sequence, 24DT02 substituted nucleotide sequence, 24DT02 truncated nucleotide sequence, 24DT02 added nucleotide sequence, control nucleotide sequence respectively and wild type maize plants (stages V3-V4) were performed respectively.
Maize plants containing 24DT02 nucleotide sequence, 24DT02 substituted nucleotide sequence, 24DT02 truncated nucleotide sequence, 24DT02 added nucleotide sequence, control nucleotide sequence respectively and wild type maize plants were taken and spayed with 2,4-D dimethyl ammonium salt (8960 g ae/ha, 16-folds concentration in field), agroxone (8960 g ae/ha, 16-folds concentration in field) and blank solvent (water) respectively. Prop root development was counted 21 days after spaying. Three strains (S1, S2, and S3) of corn plants transfected with 24DT02 nucleotide sequence, two strains (S4 and S5) of corn plants transfected with 24DT02 substituted nucleotide sequence, two strains (S6 and S7) of corn plants transfected with 24DT02 truncated nucleotide sequence, two strains (S8 and S9) of corn plants transfected with 24DT02 added nucleotide sequence, two strains (S10 and S11) of corn plants transfected with control nucleotide sequence and 1 strain of wild type (CK) corn were selected and 10-15 plants from each stain were tested.

[2] = test system: Arabidopsis T1 plants transformed with 24DT02 nucleotide sequence; test: Herbicide resistance effect test of transgenic Arabidopsis T1 plants (24DT02); type: in vivo, Arabidopsis thaliana; conditions: for resistance levels to 2,4-D dimethyl ammonium salt and agroxone, compared among the sequences: Arabidopsis T1 plants transformed with the respective sequence
Experimental: On 7 days after planting (DAP) and 11 DAP respectively, the T1 plants (cotyledon stage and 2-4 leaves stage, respectively) were sprayed with 0.2% of Liberty herbicide solution (200 g ai/L glufosinate-ammonium) using DeVilbiss compressed air nozzle at a spraying volume of 10 ml/disc (703 L/ha) so as to provide effective amount of glufosinate-ammonium (280 g ai/ha) for each application. The survival plants (actively growing plants) were verified 4 to 7 days after the last spraying and transferred into the square pot (7 cm×7 cm) made from vermiculite and horses dung (3-5 plants per pot). The transplanted plants were covered with moisturizing mask for 3-4 days and placed in culture room at 22° C. or directly into the greenhouse as described above. Then the mask was removed and the plants were planted in greenhouse (22±5° C., 50±30% RH, 14 hours of lighting: 10 hours of darkness, minimum […] natural light+complement light) at least one day before testing the ability of 24DT02 to provide the resistance to phenoxy auxin herbicide.
24DT02 gene was used to transform Arabidopsis for the first time. At first, T1 transformants were selected from the background of un-transformed seeds, using glufosinate-ammonium selection scheme. About 40000 T1 seeds were screened among which 195 strains of T1 generation positive transformants (PAT gene) were identified, i.e. the transformation efficiency was about 0.5%. Herbicide resistance effect tests to 2,4-D dimethyl ammonium salt and agroxone of Arabidopsis T1 plants transformed with 24DT02 nucleotide sequence, substituted 24DT02 nucleotide sequence, truncated 24DT02 nucleotide sequence, added 24DT02 nucleotide sequence, control nucleotide sequence respectively and wild-type Arabidopsis plants were performed after 18 days of planting.
Arabidopsis T1 plants transformed with 24DT02 nucleotide sequence, substituted 24DT02 nucleotide sequence, truncated 24DT02 nucleotide sequence, added 24DT02 nucleotide sequence and control nucleotide sequence respectively and wild-type Arabidopsis plants were sprayed with 2,4-D dimethyl ammonium salt (560 g ae/ha, 1-fold concentration in field), agroxone (560 g ae/ha, 1-fold concentration in field) and blank solvent (water). Resistance conditions of the plants were counted 7 days and 14 days after spraying. Plants with growth conditions consistent with blank solvent (water) 7 days after spaying were classified as highly resistant plants; Plants with curly rosette leaves 7 days after spaying were classified as moderately resistant plants; Plants incapable of bolting 14 days after spaying were classified as low-resistant plants and the dead plants 14 days after spaying were classified as non-resistant plants. Because each Arabidopsis T1 plant was an independent transformation event, significant differences of individual T1 responses were expected under a given dose.

Molecule	effective dose to distinguish the sensitive plants from plants with average resistance (Arabidopsis) [g ae/ha]	resistance levels against 2,4-D dimethyl ammonium salt and agroxone, compared among the sequences [1]	resistance levels to 2,4-D dimethyl ammonium salt and agroxone, compared among the sequences [2]	herbicide resistance conferred to plants ([1]; transgenic maize plants, 2,4-D dimethyl ammonium salt and agroxone 8960 g ae/ha, Table 2)	herbicide resistance conferred to plants ([2]; Arabidopsis T1 plants, 2,4-D dimethyl ammonium salt and agroxone 560 g ae/ha, Table 1 and FIG. 4)
O=C(O)COc1ccc(Cl)cc1Cl [2,4-D, 2,4-dichlorophenoxyacetic acid]	50	–	–	–	–
B1	–	didn't show significant differences	didn't show significant differences	–	–
B2	–	didn't show significant differences	didn't show significant differences	–	–
B3	–	didn't show significant differences	didn't show significant differences	conferred high resistance against herbicides to the transgenic maize plants	conferred herbicide resistance to individual Arabidopsis plants
B4	–	didn't show significant differences	didn't show significant differences	–	–
